From article PMC3581551, “The N-Terminal β-Sheet of Peroxiredoxin 4 in the Large Yellow Croaker Pseudosciaena crocea Is Involved in Its Biological Functions” (PLoS ONE, 2013)

Biological target: the molecule itself
Test: crystal structure; reduced form, 1.90 Å, space group C2; five subunits in the asymmetric unit (two dimers and a monomer), decamer (pentamer of dimers) by crystal symmetry; crystals at 16°C, 10% PEG MME 5,000, 0.1 M HEPES-NaOH pH 8.0, with 14 mM β-mercaptoethanol and 10 mM DTT

B1: Pseudosciaena crocea peroxiredoxin 4 (Prx4), mature protein without the 29-residue signal peptide (enzyme)
chain: EEAAHVKNSQCHNYAGGHVYPGEAFRVPVSDHSLHLSKAKISKPAPQWEGTAVINGEFKELKLSDYRGKYLVFFFYPLDFTFVCPTEIIAFSDRVHEFRAINTEVVACSVDSQFTHLAWIITPRKQGGLGPMKIPLLSDLTHQISKDYGVYLEDQGHTLRGLFIIDEKGVLRQITMNDLPVGRSVDETLRLVQAFQYTDKHGEVCPAGWKPGSDTIIPDPSGKLKYFDKMK
  stoichiometry N: 10
